Here are results for two molecules from article PMC5443481, “Binding of CIB1 to the αIIb tail of αIIbβ3 is required for FAK recruitment and activation in platelets” (PLoS ONE, 2017).

Where only a bound is given, the exact number is not on record here.

Assay [1] addresses calcium- and integrin-binding protein 1 (CIB1) (human (endogenous in platelets)) (UniProt Q99828). Nature of the assay: co-IP; anti-CIB1 immunoprecipitates (overnight 4°C, protein G-Sepharose) of pre-cleared 1% Nonidet P-40 lysates of washed human platelets exposed to BSA or immobilized Fg for ~45 min; blots for αIIb, FAK, c-Src; treatments: DMSO, BAPTA-AM (50 μM), cytochalasin D after adhesion.

For assay [2], the target named is T1, calcium- and integrin-binding protein 1 (CIB1) (human (endogenous in platelets), UniProt Q99828 1-191).
T1 sequence (looked up): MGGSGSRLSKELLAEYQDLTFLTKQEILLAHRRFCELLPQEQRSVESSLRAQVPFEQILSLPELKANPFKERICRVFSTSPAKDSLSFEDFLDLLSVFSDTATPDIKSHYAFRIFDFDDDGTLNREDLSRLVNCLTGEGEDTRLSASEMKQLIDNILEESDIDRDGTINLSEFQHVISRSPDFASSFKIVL
Nature of the assay: cell-based or functional assay.

“integrin αIIb subunit of αIIbβ3 (receptor)”: the fold reduction of co-precipitated αIIb with BAPTA-AM against vehicle in assay [1] amounted to 6 fold.

Regarding KVGFFKRNRPPLEEDDEEGE (peptide, UniProt P08514 1020-1039, looked up) [αIIb cytoplasmic domain peptide], the “c-Src activation (pY418 blot of lysates) in human platelets on immobilized Fg; inhibition by the incorporated αIIb peptide, which blocks CIB1 with αIIb (m1+m2)” value in assay [2] was > 8 fold.
